To fix the notation:
B1: minF1; a variant is named by its letters at N, in order (parent)
chain: GAGACCGCAACTGAAAAGTTGTTNNNNAANNNNNGGNTNAATTTCTGCACGTAGAAGCAAAAGGC

The data set covers variants of B1. In words: fraction ligated after 30 min (ligated reads / total reads); higher = more ligase activity. The settings on record: with F1*subA RNA substrate (template-directed ligation), 42 °C. In a few lines:
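Templates from an oligo pool encoding minimized ligase ribozyme variants were amplified by PCR, transcribed with T7, and purified on gels. Gel electrophoresis separated ligated from unligated RNAs, which were then reverse transcribed using barcoded primers and sequenced on a MiSeq, keeping core bases with quality ≥30. For each variant, fraction ligated equals ligated reads divided by total reads.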
Turning to GAGACCGCAACTGAAAAGTTGTTTCGAAATGGTGGGTTGAATTTCTGCACGTAGAAGCAAAAGGC [TCGATGGTGTG], the fraction ligated came to 0.00336. For GAGACCGCAACTGAAAAGTTGTTATCGAATGGATGGGTTAATTTCTGCACGTAGAAGCAAAAGGC [ATCGTGGATGT] the value was 0.00561; for GAGACCGCAACTGAAAAGTTGTTTAGAAATGGATGGTTGAATTTCTGCACGTAGAAGCAAAAGGC [TAGATGGATTG], 0.00552; for GAGACCGCAACTGAAAAGTTGTTTCAGAAATGATGGGTTGATTTCTGCACGTAGAAGCAAAAGGC [TCAGATGATGT A40G], 0.011.

Turning to GAGACCGCAACTGAAAAGTTGTTACAGAAATGGATGGGTTATTTCTGCACGTAGAAGCAAAAGGC [ACAGATGGAGT G35T T38G A40T], the fraction ligated turned out to be 0.00236. As for GAGACCGCAACTGAAAAGTTGTTATAAAATGGATGGTTGAATTTCTGCACGTAGAAGCAAAAGGC [ATAATGGATTG], the fraction ligated was 0.00677.

GAGACCGCAACTGAAAAGTTGTTATCAGATGATGGGTTGAATTTCTGCACGTAGAAGCAAAAGGC [ATCATGATGTG A28G]: the fraction ligated is 0.00487. For GAGACCGCAACTGAAAAGTTGTTACAGAAATGATGGTTGAATTTCTGCACGTAGAAGCAAAAGGC [ACAGATGATTG] the value was 0.00209; for GAGACCGCAACTGAAAAGTTGTATCAAAAGGATGGGTTGAATTTCTGCACGTAGAAGCAAAAGGC [TCAAGGATGTG T23A], 0.00271; for GAGACCGCAACTGAAAAGTTGTATCAGAAATGGATGGTTAATTTCTGCACGTAGAAGCAAAAGGC [TCAGATGGAGT T23A G35T], 0.0188. For GAGACCGCAACTGAAAAGTTGTTATCAAAGGATGGGTTGAATTTCTGCACGTAGAAGCAAAAGGC [ATCAGGATGTG], the fraction ligated was 0.00723.

As to GAGACCGCAACTGAAAAGTTGTTATGAAATGGATGGGTTAATTTCTGCACGTAGAAGCAAAAGGC [ATGATGGATGT], the fraction ligated was 0.00269. For GAGACCGCAACTGAAAAGTTGTACAGAAATGGAGGGTTGAATTTCTGCACGTAGAAGCAAAAGGC [CAGATGGAGTG T23A] the value was 0.00336; for GAGACCGCAACTGAAAAGTTGTATCAGAAATGGAGGGTTAATTTCTGCACGTAGAAGCAAAAGGC [TCAGATGGAGT T23A], 0.00368; for GAGACCGCAACTGAAAAGTTGTTATCAGATGGATGGGTTAATTTCTGCACGTAGAAGCAAAAGGC [ATCATGGATGT A28G], 0.00453. For GAGACCGCAACTGAAAAGTTGTTAAGAAATGGAGGGTTGAATTTCTGCACGTAGAAGCAAAAGGC [AAGATGGAGTG] the value was 0.000852. As for GAGACCGCAACTGAAAAGTTGTTACAGATGGATGGGTTGAATTTCTGCACGTAGAAGCAAAAGGC [ACAGGGATGTG A29T], the fraction ligated turned out to be 0.00506.

As to GAGACCGCAACTGAAAAGTTGTTTCAAAATGGAGGGTTGAATTTCTGCACGTAGAAGCAAAAGGC [TCAATGGAGTG], the fraction ligated is 0.00287. Consider GAGACCGCAACTGAAAAGTTGTTACAGAAATGGATGGTTAATTTCTGCACGTAGAAGCAAAAGGC [ACAGATGGAGT G35T], for which the fraction ligated came to 0.014. As to GAGACCGCAACTGAAAAGTTGTATCGAAATGGATGGGTTAATTTCTGCACGTAGAAGCAAAAGGC [TCGATGGATGT T23A], the fraction ligated was determined as 0.0123. Turning to GAGACCGCAACTGAAAAGTTGTTATCAAAATGGATGGTTGATTTCTGCACGTAGAAGCAAAAGGC [ATCAATGGAGT G35T A40G], the fraction ligated is 0.0379. For GAGACCGCAACTGAAAAGTTGTTTCGAAATGGATGGTTGAATTTCTGCACGTAGAAGCAAAAGGC [TCGATGGATTG] the value was 0.127; for GAGACCGCAACTGAAAAGTTGTTATCAGAATGGTGGTTGAATTTCTGCACGTAGAAGCAAAAGGC [ATCAATGGTTG A28G], 0.00263; for GAGACCGCAACTGAAAAGTTGTTATGAAATGGATGGTTGAATTTCTGCACGTAGAAGCAAAAGGC [ATGATGGATTG], 0.0074. As for GAGACCGCAACTGAAAAGTTGTTATCAGAAATATGGGTTAATTTCTGCACGTAGAAGCAAAAGGC [ATCAAATATGT A28G], the figure is 0.00373; as for GAGACCGCAACTGAAAAGTTGTTATCAAAATGGTGGGTTGATTTCTGCACGTAGAAGCAAAAGGC [ATCAATGGTGT A40G], 0.00841.

Turning to GAGACCGCAACTGAAAAGTTGTTATCAAAAGGATGGGTTAATTTCTGCACGTAGAAGCAAAAGGC [ATCAAGGATGT], the fraction ligated is 0.00413. Take GAGACCGCAACTGAAAAGTTGTTATCAGAAGGATGGTTGAATTTCTGCACGTAGAAGCAAAAGGC [ATCAAGGATTG A28G]: the fraction ligated was found to be 0.00187. As for GAGACCGCAACTGAAAAGTTGTTTCAAAATGGATGGGTTGATTTCTGCACGTAGAAGCAAAAGGC [TCAATGGATGT A40G], the figure is 0.0177; as for GAGACCGCAACTGAAAAGTTGTTATAGAAAGGTGGGTTGAATTTCTGCACGTAGAAGCAAAAGGC [ATAGAGGTGTG], 0.00246. For GAGACCGCAACTGAAAAGTTGTTATCAGAATGGAGGGTTGATTTCTGCACGTAGAAGCAAAAGGC [ATCAATGGAGT A28G A40G] the value was 0.00701; for GAGACCGCAACTGAAAAGTTGTTAAGAAATGGTGGGTTGAATTTCTGCACGTAGAAGCAAAAGGC [AAGATGGTGTG], 0.00306. For GAGACCGCAACTGAAAAGTTGTTAAGAAAGGATGGGTTGAATTTCTGCACGTAGAAGCAAAAGGC [AAGAGGATGTG] the value was 0.00256; for GAGACCGCAACTGAAAAGTTGTTTAGAAATGATGGGTTGAATTTCTGCACGTAGAAGCAAAAGGC [TAGATGATGTG], 0.00308; for GAGACCGCAACTGAAAAGTTGTTTCGAAATGGAGGGTTGAATTTCTGCACGTAGAAGCAAAAGGC [TCGATGGAGTG], 0.00518. Take GAGACCGCAACTGAAAAGTTGTTACAAATGGATGGGTTGAATTTCTGCACGTAGAAGCAAAAGGC [ACAAGGATGTG A29T]: the fraction ligated was 0.00252.

With GAGACCGCAACTGAAAAGTTGTTATGAATGGATGGGTTGAATTTCTGCACGTAGAAGCAAAAGGC [ATGAGGATGTG A29T], the fraction ligated amounted to 0.0247. As for GAGACCGCAACTGAAAAGTTGTTATAGAAAGGAGGGTTGAATTTCTGCACGTAGAAGCAAAAGGC [ATAGAGGAGTG], the fraction ligated is 0.00165. As for GAGACCGCAACTGAAAAGTTGTTTAGAAATGGATGGGTTAATTTCTGCACGTAGAAGCAAAAGGC [TAGATGGATGT], the figure is 0.00222.

In the case of GAGACCGCAACTGAAAAGTTGTTACAGAAATGAGGGTTGAATTTCTGCACGTAGAAGCAAAAGGC [ACAGATGAGTG], the fraction ligated was 0.00298.

As for GAGACCGCAACTGAAAAGTTGTTTCAGAAGGATGGGTTGAATTTCTGCACGTAGAAGCAAAAGGC [TCAGGGATGTG], the fraction ligated amounted to 0.00365.

The values are drawn from the supplement of paper PMC6755084.
